In US20240376183A1 (UNIVERSIT T ZU K LN, published 2024):

B1: antibody 2-12 (antibody, V domains shown)
VH: QLVQSGGGVRRPGASVKISCETPEDTFTKYWLHWLRQAPGQGLEWMGVVSPHGGRPMFAFEFRDRLTLTRDIHTTTHFMELRGLTSDDTAVYYCARDPFGETFRGHDQPYRMDVWGGGTTIVVSS
VL: EPVLTQSPGTLSVSPGEGATLSCRARQGFSADHVAWFQKKPGRPPRLLIFEASRRASGTPERFSGSGSGPEYTLTITRVEAEDFAVYYCQSYGSITPLVFGGGTRVDVK
B2: antibody 1-18 (antibody, V domains shown)
VH: QGRLFQSGAEVKRPGASVRISCRADDDPYTDDDTFTKYWTHWIRQAPGQRPEWLGVISPHFARPIYSYKFRDRLTLTRDSSLTAVYLELKGLQPDDSGIYFCARDPFGDRAPHYNYHMDVWGGGTAVIVSS
VL: EVVLTQSPAILSVSPGDRVILSCRASQGLDSSHLAWYRFKRGQIPTLVIFGTSNRARGTPDRFSGSGSGADFTLTISRVEPEDFATYYCQRYGGTPITFGGGTTLDKK
B3: antibody 1-55 (antibody, V domains shown)
VH: QRRLFQSGTEVKRPGASVKISCRADDDPYTDDDTFTKYYTHWIRQAPGQPPEWLGVISPHFARPIYSYKFRDRLTLTRDSSLTAVYFELRGLQPDDTGIYFCARDPFGDMYPHYNYHMDVWGGGTTVIVSA
VL: EAVLTQSPAILSVSPGDRVILSCKASEGLSSSDLAWYRFKGGQIPTLVIFGASNRARGTPDRFSGSGSGTDFTLTINRVEPEDFATYYCQRYGGTPITFGGGTTLDKK

Biological target: HIV-1 Env protein of virus strain 89-F1_2_25 (HIV-1)
Assay: cell-based or functional assay

| Binder | IC50, TZM-bl pseudovirus neutralization assay [ng/mL] |
| --- | --- |
| B1 | 6 |
| B2 | 7 |
| B3 | 14 |
